Molecular target: prostate-specific antigen (PSA) (human, UniProt P07288 25-261)
Assay: electrochemical aptasensor (CV, SWV, EIS); ferrocyanide or TiO2/CQDs redox probe; 30 min binding; detection 0.5-7 ng/ml; LOD is not a Kd; Aptamer electrode washed with 0.1 mol/L PBS pH 7.0; PSA 30 min; 1.0 mM K3/K4[Fe(CN)6] (1:1), or TiO2/CQDs electrolyte at pH 5.4 and pH 8; temperature not stated
Conditions: protein: commercial

prostate-specific antigen (PSA), sequence (P07288 25-261): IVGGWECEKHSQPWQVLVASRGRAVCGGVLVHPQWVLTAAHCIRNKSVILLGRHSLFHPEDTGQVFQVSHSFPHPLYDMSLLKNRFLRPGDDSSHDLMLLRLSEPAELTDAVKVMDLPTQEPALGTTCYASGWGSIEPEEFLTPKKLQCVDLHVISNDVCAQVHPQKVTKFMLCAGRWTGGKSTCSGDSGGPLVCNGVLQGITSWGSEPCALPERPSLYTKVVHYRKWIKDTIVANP

Question: Does TTTTTTTTTTATTAAAGCTCGCCATCAAATAGCTGC (ssDNA, 5'-HS (thiol)) [thiolated PSA binding DNA aptamer] bind?
Answer: Result: binds

— article PMC8576073, “Ultra pH‐sensitive detection of total and free prostate‐specific antigen using electrochemical aptasensor based on reduced graphene oxide/gold nanoparticles emphasis on TiO2/carbon quantum dots as a r”
